The values that follow come from paper PMC11952320.

Holding throughout (test): co-IP
The target of experiment [1] is human GABAA receptor β2 subunit, epilepsy-associated variant I246T (human) (UniProt P47870).
Experiment [2] concerns the target human GABAA receptor β2 subunit, epilepsy-associated variant I299S (human) (UniProt P47870).
Experiment [3] deals with human GABAA receptor β2 subunit, epilepsy-associated variant R240T (human) (UniProt P47870).
Experiment [4] deals with human GABAA receptor β2 subunit, variant Q209F210delinsH (human) (UniProt P47870).

For “human GABAA receptor α1 subunit (GABRA1)”, the percent reduction of the ratio of α1 to β2 after co-IP, against WT in experiment [1] came to 30%; in experiment [2] it was 30%; in experiment [3], 80%; in experiment [4], 75%.
